Test results published in paper PMC12624148.
“And” between values parts separate entries of the source, which are not always exact repeats. Identical values can stand only once.

What was measured:
[1] = molecular target: H3T3 phosphorylated nucleosome core particle (H3T3ph NCP) (UniProt P62805); assay: mass photometry; CPC-NCP complexes diluted to 20 nM (legend of Fig. EV1D: 50 nM) in 20 mM HEPES pH 8.0, 50 mM NaCl, 1 mM EDTA, 1 mM DTT; Refeyn TwoMP; Gaussian fitting of mass populations
[2] = molecular target: H3T3 phosphorylated nucleosome core particle (H3T3ph NCP) (UniProt P62805); assay: native gel or EMSA; 20 nM H3T3ph NCPs wrapped with centromeric α-satellite DNA; CPC 7.8 nM to 2 µM, 1 h on ice; 10 mM Tris pH 7.5, 250 mM NaCl, 1 mM MgCl2, 1 mM DTT, 1% glycerol, 0.1 mg/ml BSA; gel at 4 °C; unbound NCP band quantified, specific binding with Hill slope
[3] = molecular target: CPC I1-190 6A SB R65A;R66A;K67A;K68A;R69A;R70A;INCENP (UniProt Q9NQS7+O15392+Q53HL2); assay: EMSA; settings: histone H3 T3ph; EMSA: 20 nM NCP, 10 mM Tris pH 7.5, 250 mM NaCl, 1 mM MgCl2, 1 mM DTT, 1% glycerol, 0.1 mg/ml BSA, 1 h on ice; gel at 4 C. SPR buffer not in the material
[4] = molecular target: CPC I1-190 6A SB dloop R65A;R66A;K67A;K68A;R69A;R70A;internal_change (UniProt Q9NQS7+O15392+Q53HL2); assay: EMSA; settings: histone H3 T3ph; EMSA: 20 nM NCP, 10 mM Tris pH 7.5, 250 mM NaCl, 1 mM MgCl2, 1 mM DTT, 1% glycerol, 0.1 mg/ml BSA, 1 h on ice; gel at 4 C. SPR buffer not in the material
[5] = molecular target: CPC I1-190 SB dloop del110-206;Borealin (UniProt Q9NQS7+O15392+Q53HL2); assay: EMSA; settings: histone H3 T3ph (native ligation, H3T32C); EMSA: 20 nM NCP, 10 mM Tris pH 7.5, 250 mM NaCl, 1 mM MgCl2, 1 mM DTT, 1% glycerol, 0.1 mg/ml BSA, 1 h on ice; gel at 4 C. SPR buffer not in the material

With “CPC_(I1-58SB) (containing INCENP 1-58, full-length Survivin and full-length Borealin) (from UniProt Q53HL2 1-280; O15392 1-142; Q9NQS7 1-58) (complex)” the stoichiometry N [1] was 2 CPC per NCP and 1 CPC per NCP.
In the case of “CPC_(I1-58SBS266D) (containing INCENP 1-58, full-length Survivin and full-length Borealin dimer breaking mutant, S266D) (from UniProt Q53HL2 1-280; O15392 1-142; Q9NQS7 1-58) (complex)”, the stoichiometry N [1] is reported as 1 CPC per NCP and 2 CPC per NCP.
“CPC_(I1-190 6ASB) (INCENP with RRKKRR mutated to AAAAAA) (from UniProt Q53HL2 1-280; O15392 1-142; Q9NQS7 1-190) (complex)” gave a times weaker binding against CPC (I1-190SB) [2] of 1.5 times.
In the case of H3T3ph NCP, alpha-satellite 147 bp, the binding signal (fold weaker vs P1) [3] is reported as 1.5 and the binding signal [4] is reported as 13 fold.
For “CPC_(I1-190SB) (CPC containing INCENP 1-190, full-length Survivin and full-length Borealin) (from UniProt Q53HL2 1-280; O15392 1-142; Q9NQS7 1-190) (complex)”, the stoichiometry N [1] was 2 CPC per NCP.
Substance “ACAGGATGTATATATGTGACACGTGCCTGGAGACTAGGGAGTAATCCCCTTGGCGGTTAAAACGCGGGGGACAGCGCGTACGTGCGTTTAAGCGGTGCTAGAGCTGTCTACGACCAATTGAGCGGCCTCGGCACCGGGATTCTCCAG (double strand) [H3T3ph NCP, Widom 601 147 bp]” has a fold decrease in binding affinity vs P1 (fold decrease in affinity vs P1) [5] of 12.
